Assay results published in PMC10663520, “Qa-SNARE syntaxin 18 mediates lipid droplet fusion with SNAP23 and SEC22B” (Cell Discovery, 2023).

T1: GST-Flag-STX18 (full-length) (UniProt Q9P2W9 1-335)
T1 construct: syntaxin 18 (STX18), full length, in pGEX-4T-1 with GST-TEV-3xFLAG at the N-terminus; C-terminus printed as 331-DWYDS-335; The methods describe only the TEV-cleaved preparation; also called GST-STX18; GST-Flag-tagged STX18; source: E. coli BL21 (C43), purified (Glutathione Sepharose 4B); not shown: GST, N-terminal, kept; 3xFLAG, N-terminal, kept
T1 sequence (looked up): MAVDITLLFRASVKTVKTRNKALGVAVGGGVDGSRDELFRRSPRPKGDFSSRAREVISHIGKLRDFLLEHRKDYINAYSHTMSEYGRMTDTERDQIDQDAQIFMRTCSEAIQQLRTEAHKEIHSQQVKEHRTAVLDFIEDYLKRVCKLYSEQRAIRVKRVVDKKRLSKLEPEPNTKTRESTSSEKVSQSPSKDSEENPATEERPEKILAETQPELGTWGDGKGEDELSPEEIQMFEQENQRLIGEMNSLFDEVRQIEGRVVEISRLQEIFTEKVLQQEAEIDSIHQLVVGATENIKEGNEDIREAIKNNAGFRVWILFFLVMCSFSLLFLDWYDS

B1: SEC22B-SNARE (134-194), individually purified (domain or fragment, UniProt O75396 134-194, looked up)
chain: NLGSINTELQDVQRIMVANIEEVLQRGEALSALDSKANNLSSLSKKYRQDAKYLNMRSTYA
notes: SEC22B, SNARE domain, residues 134-194, in pET28 with 6xHis at the N-terminus
B2: STX18-SNARE (243-305), individually purified (domain or fragment, UniProt Q9P2W9 243-305, looked up)
chain: IGEMNSLFDEVRQIEGRVVEISRLQEIFTEKVLQQEAEIDSIHQLVVGATENIKEGNEDIREA
notes: syntaxin 18 (STX18), SNARE domain, residues 243-305, in pGEX-4T-1 with GST-TEV-FLAG at the N-terminus; The TEV site lies between GST and FLAG, so the FLAG tag should remain after cleavage (surmised); source: E. coli BL21 (DE3), purified (Glutathione Sepharose 4B, TEV on beads, Superdex 75); not shown: GST, N-terminal, cleaved
B3: SEC22B (full-length, purified) (natural protein, UniProt O75396 1-215, looked up)
chain: MVLLTMIARVADGLPLAASMQEDEQSGRDLQQYQSQAKQLFRKLNEQSPTRCTLEAGAMTFHYIIEQGVCYLVLCEAAFPKKLAFAYLEDLHSEFDEQHGKKVPTVSRPYSFIEFDTFIQKTKKLYIDSRARRNLGSINTELQDVQRIMVANIEEVLQRGEALSALDSKANNLSSLSKKYRQDAKYLNMRSTYAKLAAVAVFFIMLIVYVRFWWL
notes: SEC22B, full length, in pGEX with N-terminal GST and a TEV site after it; C-terminus printed as 212-FWWL-215; The uncleaved form is called GST-Flag-SEC22B in the pull-down methods; if a FLAG follows the TEV site it would remain here; also called purified SEC22B; source: E. coli BL21 (C43), purified (Glutathione Sepharose 4B, TEV on beads); not shown: GST, N-terminal, cleaved
B4: SNAP23 (full-length, purified) (natural protein, UniProt O00161 1-211, looked up)
chain: MDNLSSEEIQQRAHQITDESLESTRRILGLAIESQDAGIKTITMLDEQKEQLNRIEEGLDQINKDMRETEKTLTELNKCCGLCVCPCNRTKNFESGKAYKTTWGDGGENSPCNVVSKQPGPVTNGQLQQPTTGAASGGYIKRITNDAREDEMEENLTQVGSILGNLKDMALNIGNEIDAQNPQIKRITDKADTNRDRIDIANARAKKLIDS
notes: SNAP23, full length, in pGEX with N-terminal GST and a TEV site after it; The uncleaved form is called GST-Flag-SNAP23 in the pull-down methods; if a FLAG follows the TEV site it would remain here; also called purified SNAP23; source: E. coli BL21 (DE3), purified (Glutathione Sepharose 4B, TEV on beads); not shown: GST, N-terminal, cleaved
B5: GST-Flag-SNAP23 (natural protein, UniProt O00161 1-211, looked up)
chain: B4 chain
notes: SNAP23, full length, in pGEX with N-terminal GST and a TEV site after it; The cloning paragraph names no FLAG tag for this construct; the pull-down methods and legends call it GST-Flag-SNAP23; also called GST-SNAP23; GST-Flag-tagged SNAP23; source: E. coli BL21 (DE3), purified (Glutathione Sepharose 4B); not shown: GST, N-terminal, kept

Key:
Conditions in all cases: both partners purified
[1] = biological target: B4; experiment: SEC; individually purified SNAP23, STX18-SNARE and SEC22B-SNARE, alone or as an in vitro incubated mixture of the three, on Superdex75 10/300 GL; SDS-PAGE of fractions
[2] = biological target: T1, GST-Flag-STX18 (full-length); experiment: pull-down; GST-Flag-tagged bait on GST agarose beads, 4 °C 1 h; 20 mM HEPES pH 7.4, 300 mM NaCl, 1 mM EDTA, 1% OG, 0.1% FOS-Choline-12; purified SEC22B (54.7 μM, 20 μL) or SNAP23 (280 μM, 5 μL) added; immunoblot and Coomassie
[3] = biological target: B3; experiment: as above

binding result [1] | binding result [2] | Binder | further results
binds | – | B1 | –
binds | – | B2 | –
– | binds | B3 | –
– | binds | B4 | –
– | – | B5 | binding result [3]: binds
